We go through one substance from patent US5405758.

This assay deals with mite allergen fused protein expressed by pAEX201 in E. coli pop2136 (purified recombinant mite allergen fused protein) (Dermatophagoides farinae). As to conditions: scale: times lower concentration at the inflexion point than the crude mite body antigen.

With “blood cells from a mite asthma patient, washed with Hanks' solution (cells without a defined receptor)”, the histamine release, percent ratio of the released histamine (HPLC) is more than 200.
